Results reported in publication PMC3189932, “Viral Double-Strand RNA-Binding Proteins Can Enhance Innate Immune Signaling by Toll-Like Receptor 3”.

How the values were obtained:
H-cp183 = H-cp183 (Hepatitis B virus, UniProt P03147 1-183); experiment: UV crosslinking; 4 mM Mg2+; 50 mM Tris-HCl pH 7.5, 4 mM MgCl2, 50 mM NaCl, 1 mM DTT; 400 ng protein, 1 pmol RNA; UV 1200 mJ 3 min then SDS-PAGE (crosslinking); nondenaturing stacked 5/20%; conditions: protein: recombinant; chain copies: 2; label: Cy5; hairpin, 11-bp stem, GNRA tetraloop
Chain of H-cp183 (P03147 whole entry): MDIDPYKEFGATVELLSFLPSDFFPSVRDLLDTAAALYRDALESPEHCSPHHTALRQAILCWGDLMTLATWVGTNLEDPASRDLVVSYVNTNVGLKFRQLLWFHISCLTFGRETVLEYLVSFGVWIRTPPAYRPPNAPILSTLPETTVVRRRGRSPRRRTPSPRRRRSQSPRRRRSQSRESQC

R-cp = R-cp (Ross River virus, UniProt P13890 1-270); experiment: as above; conditions: protein: recombinant; label: Cy5; hairpin, 11-bp stem, GNRA tetraloop
Chain of R-cp (P13890 1-270): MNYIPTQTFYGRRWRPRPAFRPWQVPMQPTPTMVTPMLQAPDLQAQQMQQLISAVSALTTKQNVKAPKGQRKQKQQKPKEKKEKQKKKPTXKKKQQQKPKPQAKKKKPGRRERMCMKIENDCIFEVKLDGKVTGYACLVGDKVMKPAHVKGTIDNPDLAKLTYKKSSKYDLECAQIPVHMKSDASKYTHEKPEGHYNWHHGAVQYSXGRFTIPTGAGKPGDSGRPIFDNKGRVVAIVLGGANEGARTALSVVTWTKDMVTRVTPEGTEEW

B-cp = molecular target: T1, B-cp (Brome mosaic virus, UniProt P03602 1-189); experiment: as above; conditions: protein: native; label: Cy5; hairpin, 11-bp stem, GNRA tetraloop
T1 sequence: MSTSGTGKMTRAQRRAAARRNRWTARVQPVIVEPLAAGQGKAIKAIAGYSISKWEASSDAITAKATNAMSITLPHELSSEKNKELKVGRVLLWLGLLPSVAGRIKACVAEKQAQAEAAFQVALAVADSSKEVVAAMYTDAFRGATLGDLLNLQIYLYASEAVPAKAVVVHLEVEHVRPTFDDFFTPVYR

H-cp149 = H-cp149 (Hepatitis B virus, UniProt P03147 1-149); experiment: UV crosslinking; 4 mM Mg2+; no shift; 50 mM Tris-HCl pH 7.5, 4 mM MgCl2, 50 mM NaCl, 1 mM DTT; 400 ng protein, 1 pmol RNA; UV 1200 mJ 3 min then SDS-PAGE (crosslinking); nondenaturing stacked 5/20%; conditions: protein: recombinant; chain copies: 2; label: Cy5; hairpin, 11-bp stem, GNRA tetraloop
Chain of H-cp149 (P03147 1-149): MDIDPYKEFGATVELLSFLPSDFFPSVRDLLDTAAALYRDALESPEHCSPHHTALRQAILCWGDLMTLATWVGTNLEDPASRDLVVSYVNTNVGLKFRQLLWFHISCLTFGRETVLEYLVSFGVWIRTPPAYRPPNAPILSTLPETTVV

CCAAGUCAUUCGCAAGAGUGGCUUGG (structured_RNA) [SL26]: binds (H-cp183); binds (R-cp); binds (B-cp). CCAAGUCAUUCGCAAGAGUGGCUUGG (structured_RNA) [SL26]: no binding (H-cp149).
